Tests used:
[1] = target: T1, mycATAD3A (ATAD3A with a myc tag at the 5' end) (human, UniProt Q9NVI7 2-586); test: immunoprecipitation from lysate of transfected HEK293T cells, immunoblot with anti-myc
T1 construct: Expressed in transfected HEK293T cells and immunoprecipitated from a 1% Triton X-100 lysate; also called 5' myc-tagged ATAD3A
T1 sequence: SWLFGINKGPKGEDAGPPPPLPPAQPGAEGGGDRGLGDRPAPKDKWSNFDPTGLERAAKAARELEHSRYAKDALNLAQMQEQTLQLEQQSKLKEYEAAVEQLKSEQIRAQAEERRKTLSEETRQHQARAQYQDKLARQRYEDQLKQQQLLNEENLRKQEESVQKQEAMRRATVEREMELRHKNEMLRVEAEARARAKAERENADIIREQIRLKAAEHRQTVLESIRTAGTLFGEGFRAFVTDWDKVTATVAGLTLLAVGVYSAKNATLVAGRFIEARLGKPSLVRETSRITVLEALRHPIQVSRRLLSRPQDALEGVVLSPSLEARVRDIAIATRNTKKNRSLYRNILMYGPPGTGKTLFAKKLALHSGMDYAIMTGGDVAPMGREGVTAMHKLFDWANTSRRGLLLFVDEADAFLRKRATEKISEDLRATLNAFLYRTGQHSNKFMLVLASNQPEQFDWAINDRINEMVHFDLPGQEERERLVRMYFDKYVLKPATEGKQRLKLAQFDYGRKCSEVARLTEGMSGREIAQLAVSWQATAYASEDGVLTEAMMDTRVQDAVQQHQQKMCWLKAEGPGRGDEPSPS

[2] = target: T2, ATAD3Amyc (ATAD3A with a myc tag at the 3' end) (human, UniProt Q9NVI7 1-586); test: as above
T2 construct: Expressed in transfected HEK293T cells and immunoprecipitated from a 1% Triton X-100 lysate; also called 3' myc-tagged ATAD3A; not shown: C-terminal myc tag, in frame from vector pcDNA3.1/hismycA
T2 sequence: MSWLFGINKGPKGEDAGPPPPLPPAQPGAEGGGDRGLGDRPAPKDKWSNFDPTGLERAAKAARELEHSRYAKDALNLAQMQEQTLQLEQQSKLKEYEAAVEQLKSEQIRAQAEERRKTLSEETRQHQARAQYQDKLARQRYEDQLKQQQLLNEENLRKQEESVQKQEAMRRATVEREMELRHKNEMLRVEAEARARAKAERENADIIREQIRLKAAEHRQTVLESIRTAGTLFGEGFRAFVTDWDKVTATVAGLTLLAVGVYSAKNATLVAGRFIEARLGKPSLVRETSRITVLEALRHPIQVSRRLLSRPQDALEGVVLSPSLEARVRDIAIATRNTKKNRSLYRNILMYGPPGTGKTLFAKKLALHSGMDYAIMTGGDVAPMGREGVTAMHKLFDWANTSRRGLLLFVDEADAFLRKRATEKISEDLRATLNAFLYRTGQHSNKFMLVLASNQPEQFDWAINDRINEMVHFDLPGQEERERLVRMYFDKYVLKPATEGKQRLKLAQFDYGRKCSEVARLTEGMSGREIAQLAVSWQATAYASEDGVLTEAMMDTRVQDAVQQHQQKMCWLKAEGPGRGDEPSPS

[3] = target: T3, ATAD3A (human protein having the amino acid sequence SEQ ID NO:6) (human, UniProt Q9NVI7 2-586, limits assumed); test: CR2361 affinity column loaded with NB4 cell lysate, elution at pH 2.7, SDS-PAGE bands identified by MALDI-MS
T3 construct: Endogenous protein from a RIPA lysate of NB4 cells; Bands of 30, 40 and 75 kDa eluted from the CR2361 column gave ATAD3A peptides; No peptides were identified from the 150 kDa band
T3 sequence: T1 sequence
Protocol: In advance the IgG1s were passed over a 100 kDa ultracentrifugal device to remove incomplete small IgG fragments.
For the purification of the target antigen of CR2361, an affinity column was prepared as described above for CR2401. A cell lysate of 4*10⁹ NB4 cell was prepared in RIPA buffer, according to the method described in Example 5. The cell lysate was treated essentially as described above and applied to the negative control affinity column that was connected in series to the CR2361 affinity column and an AKTA FPLC 900. The system was equilibrated with RIPA buffer. The lysate was applied to the columns at 1 ml/min and the columns were washed with 5 column volumes of RIPA buffer, followed by a salt gradient from 150 mM NaCl to 500 mM NaCl, a wash with 5 column volumes TX-100 buffer (1% Triton X-100, 150 mM NaCl, 50 mM Tris pH 7.4, protease inhibitors (Roche)) and an elution of 5 column volumes glycine, pH 2.7, whereby after 1 column volume of elution buffer the flow through was put for 10 minutes on hold to enhance the release of immune complexes. Next, the column was washed with 5 column volumes of TX-100 buffer. The eluted fractions of 0.5 ml were neutralized with 20 μl 2 M Tris/HCl, pH 7.4, and 20 μl of the samples were run on a non-reducing SDS-PAGE Criterion gel and stained with silver stain according to standard techniques known to the skilled artisan. […]

Measured: binding result

B1: CR2361 IgG1 (antibody, V domains shown)
VH: EVQLVESGGGLVQPGRSLRLSCAASGFTFDDYGMSWVRQAPGKGLEWVSLISWDGGSTYYADSVKGRFTISRDNSKNSLYLQMNSLRAEDTAVYYCAKWAPSHSFDYWGQGTLVTVSS
VL: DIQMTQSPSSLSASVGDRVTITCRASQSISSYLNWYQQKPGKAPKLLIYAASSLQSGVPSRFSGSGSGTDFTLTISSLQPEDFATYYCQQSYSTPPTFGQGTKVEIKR
notes: also called IgG1 CR2361; CR24361 (apparent misprint)
binds: all assays above
